The supplement of paper PMC7877785
± gives the uncertainty stated by the source.

Assay: self-splicing fitness, log relative to wild type (ln ratio); higher = more splicing; Tetrahymena group I intron in knt gene, E. coli kanamycin selection, DiMSum; sequences stand for … in CUCUCU…GGAGGGAAAAGUUAUCAGGCAUGCACCUGGUAGCUAGUCUUUAAACCAAUAGAUUGCAUCGGUUUAAAAGGCAAGACCGUCAAAUUGCGGGAAAGGGGUCAACAGCCGUUCAGUACCAAGUCUCAGGGGAAACUUUGAGAUGGCCUUGCAAAGGGUAUGGUAAUAAGCUGACGGACAUGGUCCUAACCACGCAGCCAAGUCCUAAGUCAACAGAUCUUCUGUUGAUAUGGAUGCAGUUCACAGACUAAAUGUCGGUCGGGGAAGAUGUAUUCUUCUCAUAAGAUAUAGUCGGACCUCUCCUUAAUGGGAGCUAGCGGAUGAAGUGAUGCAACACUGGAGCCGCUGGGAACUAAUUUGUAUGCGAAAGUAUAUUGAUUAGUUUUGGAGUACUCGUGGUCG
Outline: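 Fitness was computed with DiMSum as the error-weighted combination of replicate fold changes, kanamycin versus none, each normalised to wild type. The library randomised all eight intron nucleotides of the P1ex region, with the intron placed in the knt kanamycin-resistance gene on pET-22b(+) in E. coli BL21(DE3). Six replicate transformations were grown overnight at 37°C or 30°C on LB agar with or without 25 μg/mL kanamycin, plus 100 μg/mL carbenicillin, 50 μM IPTG and 0.2% rhamnose. Pooled colonies were amplicon-sequenced on an Illumina HiSeq 2500.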

Row | Sequence | self-splicing fitness (ln) (30 °C) | self-splicing fitness (ln) (37 °C)
1 | CGCUAGCAAUAUUACGUAUG | -1.27 ± 0.066 | -0.236 ± 0.09
2 | CGCUAGCAAUAUUACGUCAU | -3.97 ± 0.35 | -1.25 ± 0.19
3 | CGCUAGCAAUAUUACGUCCA | -1.49 ± 0.27 | -1.04 ± 0.29
4 | CGCUAGCAAUAUUACGUCCG | -0.673 ± 0.092 | -0.4 ± 0.11
5 | CGGAAGCAAUAUUACGAUAU |  | -2.82 ± 0.26
6 | CGGAAGCAAUAUUACGAUGU | -2.72 ± 0.19 | -0.735 ± 0.14
7 | CGGAAGCAAUAUUACGAUUC | -3.95 ± 0.43 | -2.28 ± 0.45
8 | CGGAAGCAAUAUUACGCAUU | -3.52 ± 0.3 | -2.98 ± 0.29
9 | CGGAAGCAAUAUUACGCCAU | -3.61 ± 0.34 | -2.84 ± 0.32
10 | CGGAAGCAAUAUUACGCGCG | -3.13 ± 0.33 | -0.88 ± 0.24
11 | CGGAAGCAAUAUUACGCGGG | -1.64 ± 0.16 | -1.35 ± 0.18
12 | CGGAAGCAAUAUUACGCUCU |  | -1.81 ± 0.44
13 | CGGAAGCAAUAUUACGGCUA | -2.54 ± 0.46 | -0.623 ± 0.28
14 | CGGAAGCAAUAUUACGGUGC | -3.17 ± 0.19 | -2.28 ± 0.19
15 | CGGAAGCAAUAUUACGUACC | -2.22 ± 0.066 | -0.907 ± 0.085
16 | CGGAAGCAAUAUUACGUAGA | -3.45 ± 0.2 | -1.82 ± 0.19
17 | CGGAAGCAAUAUUACGUAGU | -3.43 ± 0.14 | -1.97 ± 0.13
18 | CGGCAGCAAUAUUACGACGG | -0.297 ± 0.088 | 0.852 ± 0.15
19 | CGGCAGCAAUAUUACGACUU | -0.541 ± 0.06 | -0.196 ± 0.08
20 | CGGCAGCAAUAUUACGAGCG | -0.946 ± 0.09 | -0.441 ± 0.11
21 | CGGCAGCAAUAUUACGAGGC | -2.99 ± 0.32 | -2.53 ± 0.49
22 | CGGCAGCAAUAUUACGAUCC | -2 ± 0.13 | -1.03 ± 0.21
23 | CGGCAGCAAUAUUACGAUUA | -2.86 ± 0.22 | -2.17 ± 0.2
24 | CGGCAGCAAUAUUACGCAAA | -2.77 ± 0.2 | -2.43 ± 0.22
25 | CGGCAGCAAUAUUACGCAUC | -3.25 ± 0.26 | -2.39 ± 0.41

Row | Sequence | self-splicing fitness (ln) (30 °C) | self-splicing fitness (ln) (37 °C)
26 | CGGCAGCAAUAUUACGCCCA | 0.189 ± 0.12 | -0.0939 ± 0.14
27 | CGGCAGCAAUAUUACGCGUC | -4.09 ± 0.25 | -2.4 ± 0.18
28 | CGGCAGCAAUAUUACGCUAU | -3.57 ± 0.28 | -2.75 ± 0.26
29 | CGGCAGCAAUAUUACGGAAA | -3.57 ± 0.26 | -2.7 ± 0.18
30 | CGGCAGCAAUAUUACGGAAG | -1.07 ± 0.09 | -0.442 ± 0.12
31 | CGGCAGCAAUAUUACGGACG | -2.73 ± 0.21 | -2.42 ± 0.28
32 | CGGCAGCAAUAUUACGGACU | -2.26 ± 0.17 | -1.34 ± 0.2
33 | CGGCAGCAAUAUUACGGGGA | -3.21 ± 0.16 | -3.07 ± 0.21
34 | CGGCAGCAAUAUUACGGGUA | -3.66 ± 0.25 | -2.84 ± 0.19
35 | CGGCAGCAAUAUUACGUAUG | -1.55 ± 0.048 | -0.303 ± 0.065
36 | CGGCAGCAAUAUUACGUUAU | -2.5 ± 0.17 | -2.56 ± 0.21
37 | CGGCAGCAAUAUUACGUUUU | -3.75 ± 0.17 | -2.09 ± 0.14
38 | CGGGAGCAAUAUUACGAAGU |  | -1.89 ± 0.43
39 | CGGGAGCAAUAUUACGAGCC | -0.749 ± 0.46 | 
40 | CGGGAGCAAUAUUACGAGGG | -2.28 ± 0.29 | 
41 | CGGGAGCAAUAUUACGAUGG | -2.44 ± 0.2 | -0.953 ± 0.24
42 | CGGGAGCAAUAUUACGAUUG | -2.22 ± 0.46 | -1.72 ± 0.34
43 | CGGGAGCAAUAUUACGCACU | -2.4 ± 0.24 | -2.65 ± 0.25
44 | CGGGAGCAAUAUUACGCCGG | -2.87 ± 0.46 | -1.81 ± 0.34
45 | CGGGAGCAAUAUUACGCGCA |  | -0.737 ± 0.49
46 | CGGGAGCAAUAUUACGCGUC | -2.87 ± 0.22 | -2.8 ± 0.27
47 | CGGGAGCAAUAUUACGGAAG | -2.64 ± 0.18 | -1.3 ± 0.17
48 | CGGGAGCAAUAUUACGGCAU |  | -1.8 ± 0.35
49 | CGGGAGCAAUAUUACGGUAU | -3.81 ± 0.47 | -2.36 ± 0.42
50 | CGGGAGCAAUAUUACGGUGG | -3.1 ± 0.37 | -2.43 ± 0.45

Row | Sequence | self-splicing fitness (ln) (30 °C) | self-splicing fitness (ln) (37 °C)
51 | CGGGAGCAAUAUUACGUAUG | -3.99 ± 0.35 | 
52 | CGGGAGCAAUAUUACGUGGG | -2.97 ± 0.35 | 
53 | CGGGAGCAAUAUUACGUUCU | -3.58 ± 0.18 | -1.49 ± 0.19
54 | CGGUAGCAAUAUUACGAACG | -1.54 ± 0.13 | -1.29 ± 0.14
55 | CGGUAGCAAUAUUACGAGAG | -3.4 ± 0.19 | -0.673 ± 0.11
56 | CGGUAGCAAUAUUACGCCUC | -2.36 ± 0.38 | -0.282 ± 0.29
57 | CGGUAGCAAUAUUACGCCUU | -0.779 ± 0.11 | -0.542 ± 0.14
58 | CGGUAGCAAUAUUACGCGCG | -2.49 ± 0.31 | -1.87 ± 0.22
59 | CGGUAGCAAUAUUACGCGGU | -3.28 ± 0.22 | -2.96 ± 0.16
60 | CGGUAGCAAUAUUACGCUCA | -0.279 ± 0.15 | -0.399 ± 0.21
61 | CGGUAGCAAUAUUACGGACA | -1.91 ± 0.32 | -1.34 ± 0.29
62 | CGGUAGCAAUAUUACGGAGU | -3.33 ± 0.28 | -3.27 ± 0.35
63 | CGGUAGCAAUAUUACGGCAA | -2.22 ± 0.19 | -2.52 ± 0.28
64 | CGGUAGCAAUAUUACGGCUA | -1.59 ± 0.2 | -2.01 ± 0.28
65 | CGGUAGCAAUAUUACGGGCA | -1.75 ± 0.24 | -0.528 ± 0.2
66 | CGGUAGCAAUAUUACGGGCU | -3.22 ± 0.13 | -1.82 ± 0.14
67 | CGGUAGCAAUAUUACGGUCC | -2.24 ± 0.15 | -0.321 ± 0.17
68 | CGGUAGCAAUAUUACGUCUA | -0.754 ± 0.073 | -0.163 ± 0.081
69 | CGGUAGCAAUAUUACGUGUC | -2.99 ± 0.34 | -2.5 ± 0.21
70 | CGUAAGCAAUAUUACGAAGA | -3.07 ± 0.31 | 
71 | CGUAAGCAAUAUUACGAAGC | -2.95 ± 0.23 | -2.73 ± 0.26
72 | CGUAAGCAAUAUUACGAAUG | -0.363 ± 0.081 | -0.692 ± 0.088
73 | CGUAAGCAAUAUUACGACAA |  | -1.32 ± 0.23
74 | CGUAAGCAAUAUUACGACCC | -2.71 ± 0.38 | -2.23 ± 0.23
75 | CGUAAGCAAUAUUACGAGGA |  | -1.75 ± 0.33

Row | Sequence | self-splicing fitness (ln) (30 °C) | self-splicing fitness (ln) (37 °C)
76 | CGUAAGCAAUAUUACGAGUU | -3.38 ± 0.17 | -2.6 ± 0.23
77 | CGUAAGCAAUAUUACGCAAU | -3.61 ± 0.24 | -2.64 ± 0.23
78 | CGUAAGCAAUAUUACGCACA | -1.37 ± 0.18 | -0.0497 ± 0.23
79 | CGUAAGCAAUAUUACGCAUU | -3.95 ± 0.28 | -2.68 ± 0.18
80 | CGUAAGCAAUAUUACGCGAU | -3.53 ± 0.2 | -1.98 ± 0.18
81 | CGUAAGCAAUAUUACGCGCC |  | -1.97 ± 0.35
82 | CGUAAGCAAUAUUACGCGGG | -2.35 ± 0.15 | -2.72 ± 0.25
83 | CGUAAGCAAUAUUACGCGGU | -1.99 ± 0.23 | -1.69 ± 0.38
84 | CGUAAGCAAUAUUACGCGUG | -1.79 ± 0.088 | -0.855 ± 0.12
85 | CGUAAGCAAUAUUACGCGUU | -3.69 ± 0.36 | -2.31 ± 0.32
86 | CGUAAGCAAUAUUACGGCGC | -2.21 ± 0.26 | -2.2 ± 0.42
87 | CGUAAGCAAUAUUACGGGCU |  | -1.92 ± 0.21
88 | CGUAAGCAAUAUUACGGUUA | -2.29 ± 0.12 | -1.72 ± 0.14
89 | CGUAAGCAAUAUUACGUCGU | -3.41 ± 0.16 | -1.63 ± 0.15
90 | CGUAAGCAAUAUUACGUGCG | -2.95 ± 0.17 | -2.17 ± 0.16
91 | CGUAAGCAAUAUUACGUGGC | -4.85 ± 0.36 | -2.39 ± 0.15
92 | CGUAAGCAAUAUUACGUGUG | -1.29 ± 0.063 | -0.745 ± 0.078
93 | CGUCAGCAAUAUUACGAAAC | -3.63 ± 0.32 | -1.6 ± 0.32
94 | CGUCAGCAAUAUUACGAACU | -0.352 ± 0.095 | -0.0116 ± 0.11
95 | CGUCAGCAAUAUUACGACGG | -0.836 ± 0.081 | -0.516 ± 0.12
96 | CGUCAGCAAUAUUACGAGCC | -2.25 ± 0.48 | 
97 | CGUCAGCAAUAUUACGAGGA | -2.27 ± 0.19 | -2.38 ± 0.28
98 | CGUCAGCAAUAUUACGCAAG | -0.161 ± 0.07 | -0.63 ± 0.091
99 | CGUCAGCAAUAUUACGCAAU | -1.37 ± 0.1 | -2.12 ± 0.24
100 | CGUCAGCAAUAUUACGCACA | -0.869 ± 0.09 | 0.0106 ± 0.13
